The target in the experiment is C. elegans UNC-13 long isoform residues 1-258 bearing the K49E mutation (C. elegans). The experiment in a line: ITC. (In general: Isothermal titration calorimetry measures the heat released or taken up as one component is titrated into another.)

B1: C. elegans UNC-10 residues 62-121 WT (domain or fragment)
chain: KLVGTQDDAICQICQKTKFADGIGHKCFYCQLRSCARCGGRAQSKNKAIWACSLCQKRQQ
In general, Kd refers to the concentration at which binding is half-saturated. A higher Kd goes with weaker binding. Molecule B1 gave a Kd of 1290 nM.

The record behind these values is publication doi:10.1101/388868.
